# Assay results from the RNAGym collection of RNA variant scans (doi:10.1073/pnas.2313332121).
# B1: TPR t1 (parent)
# chain: GACCAAUCUGCCCUCAGAGCUCGAGAACAUCUUCGGAUGCAGAGGAGGCAGGCUUCGGUGGCGCGAUAGCGCCAACGUCCUCAACCUCCAAUGCAUCCCACCACAUGAUGAUGCCUGAAGAGCCUUGGUUUUUUG
# Variants of: B1
# Assay: polymerase ribozyme fitness, log enrichment relative to wild type (log ratio); higher = more active; in vitro selection for triplet polymerase activity
# Summary of the method: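 Both subunits of a heterodimeric triplet polymerase ribozyme were given their own mutant library, built by PCR and transcribed. Each library was annealed with a biotinylated primer, the partner subunit and triplets, incubated frozen at −7 °C, and its extended constructs gel-excised, captured on streptavidin beads and amplified by RT-PCR, all in one round done in triplicate. Fitness is the logarithm of genotype enrichment relative to wild-type enrichment, with replicates averaged by inverse-variance weighting. That logarithm is base 2, and Illumina-sequenced genotypes needed ≥10 input reads and ≥1 read per output.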
row,Variant,polymerase ribozyme fitness (log ratio)
1,U9C C15A G44U G60C A91U,-1.82
2,U9A C34U A37C A46U C56U G107C C114U G122A G127C,-7.05
3,U9G C11U C53U U81A,-0.54
4,C8U U9G U59C C72U,0.524
5,U9C A43C A46G,-1.4
6,C8U C40G G63U A100G,-5.92
7,U9G G10U C94U,-0.059
8,U9C G39A A41C C72G A84C C86A C99A A121U,-6.53
9,U9G G48U C49U G69U G120U,0.977
10,C8U C13A C85A U106C C123A,-0.442
11,C8U A29U C70U,-2.36
12,U9A C20A,-2.35
13,U9G C15A C70G A111U G117C,-5.91
14,U9G C13G C53G C56U C86U A111U,-2.52
15,C8U U9C A119U,0.976
16,C8U C22G U96A,-2.59
17,C8U U21C G122A,-0.0897
18,U9A A29U G36C G44U C72A A84G,-3.62
19,U9G C72U C86A,-0.508
20,U9A U55G C99U,-2.44
21,U9A C53U,0.789
22,C8U A16U A37U G52C C56G C79A G110U U126A,-4.2
23,U9C C15A G45C G57C U59A,0.541
24,C8U G36A A66C A84C G117A,-3.32

row,Variant,polymerase ribozyme fitness (log ratio)
1,U9A G58A G61A C85A G113A,-0.721
2,C8U C22A A26G C28U C34A G63U C104A U112C G135A,-2.92
3,C8U U30C C49U C124G U133G,-3.25
4,U9C A111U A121C U126A U130G,-4.36
5,U9G G48C G120A U130A G135U,-0.622
6,C8U A24G G36A G44U,-2.87
7,U9G C102U G135U,-2.17
8,C8U C12A A41U A46G G71A C89U,-2.07
9,C8U G42A C88U,-0.816
10,U9A G42A G57U C115A G127U U131A,-3.74
11,U9A G69U,0.755
12,U9A G52A C104U G110C,-3.92
13,U9G C40G C94U C123A U125A,-0.873
14,U9C C31U C56A A103U G120U,-6.8
15,U9G G10U U14A C97U,-0.883
16,U9C C12U C22G G45C C72G A100U,-4.47
17,C8U U92A,-2.72
18,U9A A16U A24C U33G G36A C115U,-7.16
19,U9A A16C C49U A66G C101G C123A,-4.86
20,U9C U32C U109G,-6.53
21,U9C A37U A66C,-1.35
22,U9A C13G C20A A43G A95G,-4.1
23,U9A G45U C73U C98U,-0.532
24,C8U U9A A18U C76G,-1.89

row,Variant,polymerase ribozyme fitness (log ratio)
1,U9A A26U C40G G58C U125G,-4.12
2,C8U A50U,-0.00813
3,C8G U32G C101U C124A,-4.92
4,U9A A16U G63U U132A,-1
5,C8G U30C,-2.51
6,C8U A74G C123G,1.71
7,U9G G48A U81A C89A G93U C115G C123G,-6.43
8,C8U C13A A18C U54G C70U,-3.71
9,C8G U14A U55G C73G C97A,-4.31
10,U9G G19U G44A G58C C64U A74G,-4.3
11,C8U G48C,0.186
12,C8U A24G G44U U106C,-1.81
13,C8U C15U U32C G71U C99U,-4.38
14,C8U G52U C56A G77U A121U,1.55
15,C8U C12G U14G G60A U78G G113A,-3.01
16,C8U U9A C11A C13A G44U C73A A100U C102U,-4.18
17,C8U U9G A37G G117C,-0.0473
18,U9G C72G,-0.437
19,C8G U78C C85U G113U U132A,-2.41
20,U9C C85G,-1.02
21,U9A A100U,0.21
22,U9C A29G G58A A90U G110A,-4.22
23,U9G G17A C56U A83U C89A C101A,-4.6
24,C8U A46U,-0.626

row,Variant,polymerase ribozyme fitness (log ratio)
1,C8U A46G,-0.00753
2,C8U C73A,1.41
3,U9C C62U C102U,-1.87
4,U9A C13U C79U C114A,0.44
5,U9G A95C U130A,-0.961
6,U9C G47U C49U U129A,-3.07
7,C8U U32G C101A C115G,-5.52
8,U9A A27U C28A U78C U96A U106A G117A,-4.8
9,C8U U14A G61A,-0.345
10,U9A U55G C56G,-0.896
11,U9A C13G A26C G63C G110A,-5.86
12,C8U G93C,0.0241
13,U9C C12U A16G C49G,0.31
14,U9G C15A C97U A108G G120A,-1.87
15,U9G A27C C98U,-4.04
16,U9G C12U C13G G47C C56U,-1.38
17,U9A G71A C73A C85A U116A,-3.81
18,C8U C94A,-0.617
19,C8G U92A,-1.78
20,U9C G47U G63U,-1.41
21,U9G C72G G113A G120A,-1.17
22,U9C C13U G48A A74C U81G C101U U126C,-2.71
23,U9G A26C U54A U55A C88U G93A,-6.29
24,C8U G52A A74U U112C,1.59

row,Variant,polymerase ribozyme fitness (log ratio)
1,U9C C15G U106A,-1.27
2,C8U C72U U87C,0.806
3,C8U G58U A111G U126C,-1.57
4,C8U C56U C89A A118U,-1.04
5,U9G C40A C76U C114A,-2.63
6,C8G U9G C12G C49G A91U,-2.4
7,U9A A46U G63C C82G C86A,-1.25
8,C8G U38A A100U,-2.56
9,U9A A50G C88G A108U,-4.75
10,C8U C72A C98U U116A G128C,-6.24
11,U9G A83G G93A C102A C123U,-2.93
12,C8U,0.471
13,C8U C85U C124G,2.05
14,C8G U21A U38G C76U C88A U112G A121C,-4.14
15,U9A C80U C101U A111U U116A,-4.4
16,U9G C97U A100C A108G,-2.87
17,U9A A50U C102A,-1.91
18,U9G C53A A95C U112G,-0.929
19,C8G U14G C53U G71A,-0.0624
20,U9C G19C C70U,-3.22
21,U9C A83C,0.121
22,U9A C73G,-0.255
23,U9C A37C C94U G110A,-1.17
24,C8G U38C A50U C115A,0.783

row,Variant,polymerase ribozyme fitness (log ratio)
1,C8U G44A C56A C72A U81C A111C,-3.76
2,U9G A18U C49A G93A G110C,-5.65
3,U9G C73U C82A A83C A118U G128A,-1.71
4,U9G G17U G60C U96C C104U G117A,-3.16
5,U9A A18U A41G U92A,-2.99
6,C8U A24G G48C C115G,-3.87
7,U9A C12G U87G C99U,-2.31
8,U9A U30C G44A G57U G60A U112G U125A,-5.02
9,C8U G63A C102A U106C G113A U130G,-5.25
10,U9A G63U G120C,0.699
11,U9C G39A A41U C73G G120U,-0.71
12,C8U G93C C114U,-1.54
13,U9G A105U G113A,-5.18
14,U9G C28G A111C G122A,-4.22
15,C8U A18U A50U G69C C82A C124G,-3
16,U9G A16G C73G G110A U132A,-2.97
17,U9G C99U C124A U131G,-3.14
18,U9C C64A A74U U112G,-6.76
19,U9A G42A U87C C101A G120A,-1.63
20,C8U C97U U116C,-0.891
21,U9C C12G U55C A83G G93A C102U,-5.25
22,U9G C20U G51U C94U,-4.89
23,C8U C20U A37U A43U,-2.77
24,U9G C22G U81C,-3.31

row,Variant,polymerase ribozyme fitness (log ratio)
1,U9G C12G G93C,-0.487
2,U9G G36U C70U A74U,-1.42
3,C8U C73A C88G,-1.06
4,U9G A41U U81C U96A,-2.65
5,U9G A103U U126A G127C,-5.16
6,U9A C13U G63A C88A G113C U129G U134G,-3.06
7,C8G U33C C64A U106A G120C,-6.76
8,C8U C64A U78C,-6.51
9,U9C C53U G69C,-0.176
10,U9C U21A C49G C101A,-1.26
11,U9A C13G A46G G107C G135U,-7.09
12,U9G G10C,0.723
13,U9G G10U,0.261
14,C8U C80G,-4.55
15,U9G C34U U59A A103U,-5.76
16,U9A C73G G117A,0.428
17,C8U G19C C56A C115A,-2.03
18,U9C A43G C89U,-0.469
19,U9A G44A G69A C72U U87C,-3.54
20,U9G G10C C11A C15A A37G C49G C85U A95U C123U,-3.19
21,U9C U54A C101U,0.158
22,U9C G45A C124U U126A U133A,-0.505
23,U9A C56U,0.248
